B1: Arabidopsis thaliana 1-deoxy-D-xylulose 5-phosphate synthase (59-717), C-terminal hexahistidine-FLAG tandem tag (enzyme, UniProt Q38854 59-717, looked up)
chain: ASLAEKGEYYSNRPPTPLLDTINYPIHMKNLSVKELKQLSDELRSDVIFNVSKTGGHLGSSLGVVELTVALHYIFNTPQDKILWDVGHQSYPHKILTGRRGKMPTMRQTNGLSGFTKRGESEHDCFGTGHSSTTISAGLGMAVGRDLKGKNNNVVAVIGDGAMTAGQAYEAMNNAGYLDSDMIVILNDNKQVSLPTATLDGPSPPVGALSSALSRLQSNPALRELREVAKGMTKQIGGPMHQLAAKVDEYARGMISGTGSSLFEELGLYYIGPVDGHNIDDLVAILKEVKSTRTTGPVLIHVVTEKGRGYPYAERADDKYHGVVKFDPATGRQFKTTNKTQSYTTYFAEALVAEAEVDKDVVAIHAAMGGGTGLNLFQRRFPTRCFDVGIAEQHAVTFAAGLACEGLKPFCAIYSSFMQRAYDQVVHDVDLQKLPVRFAMDRAGLVGADGPTHCGAFDVTFMACLPNMIVMAPSDEADLFNMVATAVAIDDRPSCFRYPRGNGIGVALPPGNKGVPIEIGKGRILKEGERVALLGYGSAVQSCLGAAVMLEERGLNVTVADARFCKPLDRALIRSLAKSHEVLITVEEGSIGGFGSHVVQFLALDGLLDGKLKWRPMVLPDRYIDHGAPADQLAEAGLMPSHIAATALNLIGAPREALF
notes: 1-deoxy-D-xylulose 5-phosphate synthase (DXPS), Arabidopsis thaliana, UniProt Q38854, residues 59-717, without the transit peptide; also called DXPS; DXPS-His-FLAG; source: E. coli BL21 Rosetta 2 (DE3), co-expressed with His-Hsp21 at 37 °C, purified (HisTrap, anti-FLAG M2); not shown: His6, C-terminal, kept; FLAG, C-terminal, kept

How the values were obtained:
[1] = target: the molecule itself; experiment: cryo-EM structure; purified Hsp21 without substrate, 1 mg/mL; tetrahedral symmetry imposed, 4.6 Å
[2] = target: B1; experiment: cryo-EM structure; His-Hsp21 and DXPS-His-FLAG co-expressed in E. coli at 37 °C, purified together (HisTrap, anti-FLAG), 0.7 mg/mL; 3D classification gave free DXPS (4.0 Å) and Hsp21-DXPS (3.7 Å); conditions: both partners purified
[3] = target: the molecule itself; experiment: as above

| Binder | stoichiometry N [1] | stoichiometry N [2] | stoichiometry N [3] |
| --- | --- | --- | --- |
| Arabidopsis thaliana plastid small heat shock protein Hsp21 (44-227), N-terminal hexahistidine tag (natural protein, Hsp21, Arabidopsis thaliana, UniProt P31170, residues 44-227, without the transit peptide; Alone it is a dodecamer (twelve identical subunits, tetrahedral); In the complex with DXPS it is a single monomer; also called His-Hsp21; Hsp21 dodecamer; source: E. coli BL21 Rosetta 2 (DE3), co-expressed with DXPS-His-FLAG at 37 °C, complex purified (HisTrap, anti-FLAG M2); E. coli BL21 Rosetta (DE3), …) not shown | 12 | 1 | – |
| B1 | – | – | 2 |
